Measured values published in publication PMC9898101.

How the values were obtained:
MBP-ERS I212T (human) = experiment: EMSA; conditions: 1 mM Mg2+; 5 ug/mL heparin (unit prefix not given); none (in vitro transcript); 25 mM Tris-HCl pH 7.5, 50 mM NaCl, 1 mM MgCl2, 1 mM DTT, 5 ug/mL heparin (prefix not given), 10 nM 32P-tRNA, room temperature 30 min; native 4-16% gel on …
MBP-ERS M487V (human) = experiment: EMSA; conditions: 1 mM Mg2+; 5 ug/mL heparin (unit prefix not given); none (in vitro transcript); 25 mM Tris-HCl pH 7.5, 50 mM NaCl, 1 mM MgCl2, 1 mM DTT, 5 ug/mL heparin (prefix not given), 10 nM 32P-tRNA, room temperature 30 min; native 4-16% gel on …

human tRNAGlu(TTC)
Kd (MBP-ERS I212T (human)): 2 µM | Kd (MBP-ERS M487V (human)): 1.2 µM
